The values that follow come from publication PMC6751199, “A synthetic metabolic network for physicochemical homeostasis” (Nature Communications, 2019).

Data set [1] deals with T1, OpuA (ATP-driven glycine betaine transporter) (Lactococcus lactis, UniProt Q9RQ05).
T1 construct: gene busAB; ABC transporter complex purified by Ni-Sepharose in DDM (tag not described here), expressed in L. lactis, co-reconstituted with ArcD2 in lipid vesicles
T1 sequence (Q9RQ05 1-573): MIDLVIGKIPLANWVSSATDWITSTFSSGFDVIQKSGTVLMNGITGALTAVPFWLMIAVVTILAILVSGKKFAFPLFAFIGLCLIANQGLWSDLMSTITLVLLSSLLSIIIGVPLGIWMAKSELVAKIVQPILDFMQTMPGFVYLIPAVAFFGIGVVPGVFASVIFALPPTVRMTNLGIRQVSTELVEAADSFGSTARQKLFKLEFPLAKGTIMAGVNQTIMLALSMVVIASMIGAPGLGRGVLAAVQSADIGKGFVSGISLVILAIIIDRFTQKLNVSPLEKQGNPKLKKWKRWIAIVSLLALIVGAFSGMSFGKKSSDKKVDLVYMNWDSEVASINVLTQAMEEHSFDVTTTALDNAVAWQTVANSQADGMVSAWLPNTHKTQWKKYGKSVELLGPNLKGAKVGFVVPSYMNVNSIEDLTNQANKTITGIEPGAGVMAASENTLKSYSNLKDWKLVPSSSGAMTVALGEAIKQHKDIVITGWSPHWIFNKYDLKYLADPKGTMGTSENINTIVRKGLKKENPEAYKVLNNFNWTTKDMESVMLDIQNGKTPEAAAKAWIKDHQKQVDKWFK
T1 sequence (Q9RQ06 1-407 partner): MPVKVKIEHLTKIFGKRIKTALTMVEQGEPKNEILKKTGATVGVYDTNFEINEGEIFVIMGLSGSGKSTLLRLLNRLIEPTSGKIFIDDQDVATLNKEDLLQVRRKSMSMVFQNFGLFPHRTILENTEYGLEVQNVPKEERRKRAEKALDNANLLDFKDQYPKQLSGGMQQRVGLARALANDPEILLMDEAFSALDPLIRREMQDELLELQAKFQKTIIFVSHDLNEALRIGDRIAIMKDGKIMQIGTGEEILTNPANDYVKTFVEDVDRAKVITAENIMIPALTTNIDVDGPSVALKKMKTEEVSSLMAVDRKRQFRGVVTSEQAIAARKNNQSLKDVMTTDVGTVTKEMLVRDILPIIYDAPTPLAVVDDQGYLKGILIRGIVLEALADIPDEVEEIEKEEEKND
As to the kind of experiment: […]-glycine betaine uptake in OpuA/ArcD2 vesicles. Type of data set: biochemical. Particulars: 100 mM KPi pH 7.0, 250 mM KCl, 30 °C; ATP regenerated inside from arginine; 18 µM glycine betaine; labelled compound.

Data set [2] has as its target T2, ArcD2 (arginine/ornithine antiporter) (Lactococcus lactis, UniProt Q9CE19).
T2 construct: full length, cleavable C-terminal 10His tag (cleavage not described), expressed in L. lactis JP9000 (arcD1D2 deleted), purified in DDM, reconstituted in DOPE/DOPC/DOPG vesicles
T2 sequence (Q9CE19 1-497): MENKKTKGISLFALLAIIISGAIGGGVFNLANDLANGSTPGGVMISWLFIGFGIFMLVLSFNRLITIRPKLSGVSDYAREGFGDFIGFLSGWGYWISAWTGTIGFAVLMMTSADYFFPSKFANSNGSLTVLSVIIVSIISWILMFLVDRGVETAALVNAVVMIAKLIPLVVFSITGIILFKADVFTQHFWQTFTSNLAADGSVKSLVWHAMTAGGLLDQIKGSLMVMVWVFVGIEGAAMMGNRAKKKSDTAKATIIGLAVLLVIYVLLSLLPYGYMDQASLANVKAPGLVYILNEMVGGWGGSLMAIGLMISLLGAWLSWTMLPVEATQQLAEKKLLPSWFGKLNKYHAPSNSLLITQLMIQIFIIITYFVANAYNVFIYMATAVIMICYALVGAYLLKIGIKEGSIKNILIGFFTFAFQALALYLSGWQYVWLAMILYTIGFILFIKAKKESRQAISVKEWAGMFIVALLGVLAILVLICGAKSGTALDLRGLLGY
As to the kind of experiment: […]-arginine uptake in ArcD2 proteoliposomes loaded with citrulline. Particulars: 50 mM KPi pH 7.0, 30 °C; counter-substrate 10 µM 14C-arginine outside; 1 or 10 mM citrulline inside; electrogenic. Type of data set: biochemical.

The target in data set [3] is T2, ArcD2 (arginine/ornithine antiporter). As to the kind of experiment: […]-arginine uptake in ArcD2 proteoliposomes. It is filed as biochemical. Particulars: 50 mM KPi pH 7.0, 30 °C; 10 µM arginine outside, counter-substrate L-ornithine inside; labelled compound.
Substrate in data set [4]: N=C(N)NCCC[C@H](N)C(=O)O
As to the kind of experiment: purified protein. Type of data set: biochemical, Lactococcus lactis. Particulars: 50 mM KPi pH 7.0, 30 °C, 0-480 µM L-arginine.

Substrate in data set [5]: NC(=O)OP(=O)(O)O
The data set can be described thus: ATP/ADP ratio by PercevalHR fluorescence, pH-corrected with pyranine. It is filed as biochemical, Lactococcus lactis. Particulars: 50 mM KPi pH 7.0, 5 mM MgSO4, 30 °C, excess ADP.

Substrate in data set [6]: Nc1ncnc2c1ncn2[C@@H]1O[C@H](COP(=O)(O)OP(=O)(O)O)[C@@H](O)[C@H]1O
The description is as above. It is filed as biochemical, Lactococcus lactis. Particulars: 50 mM KPi pH 7.0, 5 mM MgSO4, 30 °C, excess carbamoyl-phosphate.

Substrate in data set [7]: NCCC[C@H](N)C(=O)O
The data set can be described thus: purified protein. Particulars: 50 mM KPi pH 7.0, 30 °C, excess carbamoyl-phosphate, back reaction (citrulline formation).

Substrate in data set [8]: NC(=O)OP(=O)(O)O
The data set can be described thus: purified protein. Particulars: 50 mM KPi pH 7.0, 30 °C, excess L-ornithine, back reaction (citrulline formation). It is filed as biochemical, Lactococcus lactis.

With `C[N+](C)(C)CC(=O)[O-]` [glycine betaine], the “14C-glycine betaine uptake in OpuA/ArcD2 vesicles” value in data set [1] was “OpuA is constitutively active and imports glycine betaine at the expense of ATP”.
On to `NC(=O)NCCC[C@H](N)C(=O)O` [L-citrulline], for which, in data set [2], the “14C-arginine uptake in ArcD2 proteoliposomes loaded with citrulline” value is on record as “ArcD2 exchanges arginine for citrulline, albeit at a much lower rate”.
Turning to `N=C(N)NCCC[C@H](N)C(=O)O` [L-arginine], the “14C-arginine uptake in ArcD2 proteoliposomes” value in data set [3] was “demonstrated exchange of arginine for ornithine”.

B1: ArcA (arginine deiminase) (Lactococcus lactis subsp. lactis Il1403) (protein)
chain: MNNGINVNSEIGKLKSVLLHRPGAEVENITPDTMKQLLFDDIPYLKIAQKEHDFFAQTLRDNGAETVYIENLATEVFEKSSETKEEFLSHLLHEAGYRPGRTYDGLTEYLTSMSTKDMVEKIYAGVRKNELDIKRTALSDMAGSDAENYFYLNPLPNAYFTRDPQASMGVGMTINKMTFPARQPESLITEYVMANHPRFKDTPIWRDRNHTTRIEGGDELILNKTTVAIGVSERTSSKTIQNLAKELFANPLSTFDTVLAVEIPHNHAMMHLDTVFTMINHDQFTVFPGIMDGAGNINVFILRPGKDDEVEIEHLTDLKAALKKVLNLSELDLIECGAGDPIAAPREQWNDGSNTLAIAPGEIVTYDRNYVTVELLKEHGIKVHEILSSELGRGRGGARCMSQPLWREDL
notes: full length, cleavable N-terminal 6His tag (cleavage not described), expressed from pNZarcA in L. lactis NZ9000, Ni-Sepharose and Superdex 200
Broadly, the Km is the substrate concentration at which the rate is half of its maximum. In general, kcat refers to the number of substrate molecules converted per active site and unit of time at saturation. With B1, in “purified protein [4]”, the Km amounted to 26.5 µM and the catalytic constant (kcat) is 12 s⁻¹.

B2: ArcC1 (carbamate kinase) (Lactococcus lactis subsp. lactis Il1403) (protein)
chain: MVKRIVVALGGNAILSKDPSAKAQKEALEVTAEQLMPLIKDNDRQMVVTHGNGPQVGNLLLQQLGSDSEKNPAMPLDTVGAMTQGEIGFWTVQAFTRAMANNGLEHYPVISAVTQTLVDENDPAFKNASKPIGPFYTEEQLPEIKKQFPDWELMEDAGRGYRRVVPSPKPLEIIEAKAFGPILESGSLLIASGGGGIPVIKDGKGYQGVEAVIDKDFSAAKLAEMVGADELLILTSGGDVYLNYGKENQVHLETVKVSEMRKYVDEERFAKGSMGPKVEAAVSFVERTGKTATITSLDNVENFVKSGSGTRIVP
notes: full length, cleavable N-terminal 10His tag (cleavage not described), expressed from pNZarcC1 in L. lactis NZ9000, Ni-Sepharose and Superdex 200
On to B2, for which, in data set [5], the Km worked out at 700 µM and the kcat turned out to be 420 s⁻¹. For the same molecule, in data set [6], the Km came out at 1000 µM and the kcat was 310 s⁻¹.

B3: ArcB (ornithine transcarbamoylase) (Lactococcus lactis subsp. lactis Il1403) (protein)
chain: MTSPLITKAEVNSVFQGRSLLAEKDFTPAEINYLVDFGLHLKALKQQNIPHHYLEGKNIALLFAKTSTRTRAAFTTAAIDLGAHPEYLGANDIQLGIKESTEDTARVLGSMFDAIERRGFSQKEVEDLAKYSGVPVWNGLTDDWHPTQMIADFMTVKENFGHLKGLTLVYVGDGRNNMANSLIVTGSMLGVNVHIVAPDSLHPTKEVMDIANKFAEKSGAKPLATSNIEEGVKGANIIYSDVWVSMGESNWEERVKLLTPYRITMDMLKMTGNADNGQLIFMHCLPAFHDTETEYGKEIKEKYGLTEMEVTDEVFRSKYARQFEEAENRMHSIKAIMAATLGNLFIPAVPEDFK
notes: full length, cleavable N-terminal 6His tag (cleavage not described), expressed from pNZarcB in L. lactis NZ9000, Ni-Sepharose and Superdex 200
Take B3: in the data set “purified protein [7]”, the Km was determined as 700 µM and the kcat amounted to 2300 s⁻¹. In the data set “purified protein [8]”, the Km came to 1900 µM and the kcat was determined as 2900 s⁻¹.
